Earlier results on one substance are cited in article PMC2783296.

As a reminder, the pKa is the pH at which an ionisable group is half protonated.

This data set deals with Glu134 (UniProt position 134, VVLAIERYVVV). The experiment in a line: IR. The following applies: Photoactivated metarhodopsin II (all-trans retinal, unprotonated Schiff base).

Take “Rhodopsin (metarhodopsin II photointermediate) (Bos taurus (inferred; species not stated in the article))”: the pKa is recorded as 6.3.
